Here are results for one molecule from publication PMC11284679, “A designed ankyrin-repeat protein that targets Parkinson’s disease-associated LRRK2” (The Journal of Biological Chemistry, 2024).

Usually Kd stands for a measure of binding affinity in units of concentration. A higher Kd goes with weaker binding. One may read the koff as a measure of how fast the partners let go of each other. One may read the stoichiometry N as a count of units in the complex or per binding partner.

The target in assay [1] is T1, biotinylated LRRK2^RCKW (LRRK2 residues 1327 to 2527) (UniProt Q5S007 1327-2527, biotin (biotinylated; site not stated)).
T1 construct: Leucine rich repeat kinase 2 (LRRK2), C-terminal catalytic half with ROC GTPase, COR-A, COR-B, kinase and WD40 domains, residues 1327 to 2527; also called biotinylated LRRK2^RCKW protein; source: Sf9 (baculovirus, medium with 0.1 mM biotin), purified (Ni-NTA, TEV, Ni-NTA, S200 gel filtration); not shown: His6, N-terminal, cleaved
T1 sequence (looked up): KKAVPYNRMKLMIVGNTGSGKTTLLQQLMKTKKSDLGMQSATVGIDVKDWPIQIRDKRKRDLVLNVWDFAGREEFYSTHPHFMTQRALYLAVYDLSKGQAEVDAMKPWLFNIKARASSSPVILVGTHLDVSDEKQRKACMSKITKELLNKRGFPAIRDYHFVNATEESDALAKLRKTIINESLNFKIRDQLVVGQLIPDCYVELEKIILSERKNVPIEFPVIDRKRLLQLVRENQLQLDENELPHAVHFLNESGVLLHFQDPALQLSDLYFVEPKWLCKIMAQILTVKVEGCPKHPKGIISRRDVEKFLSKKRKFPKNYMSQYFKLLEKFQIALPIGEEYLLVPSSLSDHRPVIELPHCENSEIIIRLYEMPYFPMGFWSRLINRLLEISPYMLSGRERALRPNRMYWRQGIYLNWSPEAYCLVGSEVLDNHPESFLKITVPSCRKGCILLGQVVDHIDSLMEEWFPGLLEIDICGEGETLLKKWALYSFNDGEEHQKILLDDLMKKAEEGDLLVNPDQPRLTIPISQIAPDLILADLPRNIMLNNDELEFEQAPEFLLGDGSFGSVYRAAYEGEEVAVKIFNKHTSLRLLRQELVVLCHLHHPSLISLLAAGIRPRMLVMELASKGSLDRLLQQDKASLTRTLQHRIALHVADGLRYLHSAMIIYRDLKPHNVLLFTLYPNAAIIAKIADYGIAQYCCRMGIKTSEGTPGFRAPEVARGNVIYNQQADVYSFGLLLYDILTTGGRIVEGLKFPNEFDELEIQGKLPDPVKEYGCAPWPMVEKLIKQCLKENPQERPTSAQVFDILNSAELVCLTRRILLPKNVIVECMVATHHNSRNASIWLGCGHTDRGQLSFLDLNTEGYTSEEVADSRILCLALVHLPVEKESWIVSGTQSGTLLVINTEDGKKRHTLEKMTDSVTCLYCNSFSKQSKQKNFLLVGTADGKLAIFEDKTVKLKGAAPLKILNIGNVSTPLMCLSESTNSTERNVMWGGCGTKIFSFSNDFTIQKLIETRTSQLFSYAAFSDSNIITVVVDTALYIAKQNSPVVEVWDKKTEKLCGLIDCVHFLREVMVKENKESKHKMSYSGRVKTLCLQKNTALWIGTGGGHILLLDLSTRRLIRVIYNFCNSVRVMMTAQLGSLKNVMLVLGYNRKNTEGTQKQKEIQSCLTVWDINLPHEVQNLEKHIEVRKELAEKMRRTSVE
Description: SPR; Biacore T200; 850 RU biotinylated LRRK2^RCKW on a streptavidin-coated Series S CM5 chip; DARPin E11 in the mobile phase, 30 μl/min; 20 mM Hepes pH 7.4, 150 mM NaCl, 0.5 mM TCEP, 20 μM GDP, 2.5 mM MgCl2; plateau values fitted to a Langmuir model. The conditions noted are these: both partners purified. (Surface plasmon resonance follows binding to a sensor surface in real time, without labels.)

The target in assay [2] is T1, biotinylated LRRK2^RCKW (LRRK2 residues …). As to the kind of experiment: BLI; Octet Red96, 25 °C; biotinylated LRRK2^RCKW on streptavidin biosensors; DARPin E11 15 to 1000 nM; 50 mM Hepes pH 8.0, 150 mM NaCl, 10 mM MgCl2, 5% glycerol, 0.1% BSA, 0.05% Tween 20, 500 μM GDP; Req fitted to a Langmuir model. The conditions noted are these: both partners purified.
Assay [3] addresses LRRK2^RCKW (purified for cryo-EM from His6-Z-TEV-LRRK2^RCKW). As to the kind of experiment: mass photometry; Refeyn Two MP; LRRK2^RCKW alone or with a 2.5-fold excess of DARPin E11; 20 mM Hepes pH 7.4, 150 mM NaCl, 2.5 mM MgCl2, 5% glycerol, 20 μM GDP, 0.5 mM TCEP.

B1: DARPin E11 (designed binder)
chain: MRGSHHHHHHHHGSDLGKKLLEAARAGQDDEVRILMANGADVNATDEAGVTPLHLAADSGHLEIVEVLLKTGADVNAWDHYGFTPLHLAAHVGHLEIVEVLLKAGADVNAQDHAGWTPLHLAALYGHLEIVEVLLKHGADVNAQDMWGETPFDLAIDNGNEDIAEVLQKAAKLNDYKDDDDK
notes: Designed ankyrin-repeat protein selected by ribosome display against LRRK2^RCKW; also called 008-807-2362-H9; 8xHis-DARPin E11-3xFLAG; source: E. coli Rosetta, purified (Ni-NTA, SEC)
Regarding B1, the Kd in assay [1] is 70 nM; in assay [2], 11 nM. For the same molecule, the koff in assay [1] is ~0.005 s⁻¹. For the same molecule, the stoichiometry N in assay [3] is 1.
